The text below walks through data of patent US20230303648A1 (OSE IMMUNOTHERAPEUTICS, published 2023).

As a reminder, the Kd is a measure of binding affinity in units of concentration. A higher Kd goes with lower affinity. The EC50 (read off the curve) is the midpoint of the concentration-response curve. The EC50 is the concentration at which the effect is half-maximal.

For assay [1], the target named is T1, CD132 receptor (Sinobiological 10555-H08B) (UniProt P31785 23-254).
T1 construct: bought; analyte in the Biacore CD132 assay; also called common gamma chain
T1 sequence (looked up): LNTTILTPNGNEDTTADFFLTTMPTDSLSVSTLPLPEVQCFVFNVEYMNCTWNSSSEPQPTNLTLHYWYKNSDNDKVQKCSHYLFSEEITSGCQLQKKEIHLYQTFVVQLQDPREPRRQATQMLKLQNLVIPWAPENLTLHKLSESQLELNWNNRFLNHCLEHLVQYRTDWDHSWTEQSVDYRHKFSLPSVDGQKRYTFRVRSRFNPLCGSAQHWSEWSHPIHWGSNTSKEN
Put plainly: Biacore, steady-state model: CD127 immobilised, IgG4 alone injected, then CD132 at 31.25-500 nM; baseline of CD127 with CD132 in the absence of IL-7. (In general: In SPR one partner is held on a chip, and binding of the other changes the refractive index at the surface.)

The target in assay [2] is T2, CD127 recombinant protein (Histidine tagged, Sino ref 10975-H08H) (UniProt P16871 21-239).
T2 construct: bought; used in the CD127 sandwich ELISA; also called CD127 receptor; IL-7Ralpha; not shown: histidine tag
T2 sequence (looked up): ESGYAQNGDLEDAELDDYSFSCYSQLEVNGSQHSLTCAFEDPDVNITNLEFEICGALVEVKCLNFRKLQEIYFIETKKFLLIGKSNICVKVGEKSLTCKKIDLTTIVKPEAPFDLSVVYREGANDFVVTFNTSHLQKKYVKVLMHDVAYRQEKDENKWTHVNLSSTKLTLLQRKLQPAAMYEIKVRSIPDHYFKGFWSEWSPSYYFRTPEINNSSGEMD
Kind of assay: sandwich ELISA, PD-1 immobilised, molecule preincubated with His-tagged CD127, anti-His-biotin + streptavidin-peroxidase, 450 nm. As to the method:
Colorimetry was determined at 450 nm using TMB substrate. […] C.
Colorimetry was determined at 450 nm using TMB substrate.
A general note: An ELISA detects its analyte on a solid surface through an enzyme-linked reagent.

Assay [3] concerns the target T3, recombinant human PD-1 (rPD1; Sino Biologicals, reference 10377-H08H) (human, UniProt Q15116 25-167).
T3 construct: bought; also called hPD1; PD-1 receptor
Kind of assay: ELISA: PD-1 immobilised, anti-human Fc peroxidase detection. As to the method:
A. PD-1 binding ELISA assay. Human recombinant PD-1 (rPD1) protein was immobilized, and antibodies were added at different concentrations. Revelation was performed with an anti-human Fc antibody coupled to peroxidase. Colorimetry was determined at 450 nm using TMB substrate. The anti PD-1 with 1 (anti PD-1*1 ▲ grey) or 2 anti PD-1 arms (anti PD-1*2 ◆) were tested as control. […] All constructions tested comprise a […] linker between the Fc and IL-7 domain.

The target in assay [4] is T4, biotinylated recombinant human PD-1 (human, UniProt Q15116 25-167, limits assumed, biotinylated (site not stated)).
T4 construct: used in solution in the PD-1/PD-L1 antagonist ELISA; also called PD-1 receptor
T4 sequence (Q15116 25-167 limits assumed): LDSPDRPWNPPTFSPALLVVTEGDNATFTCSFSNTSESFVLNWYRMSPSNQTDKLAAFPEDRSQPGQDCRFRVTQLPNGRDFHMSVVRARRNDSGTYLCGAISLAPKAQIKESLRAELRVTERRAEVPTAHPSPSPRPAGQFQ
Put plainly: competition ELISA: PD-L1 immobilised (competitor), biotinylated PD-1 at 0.6 µg/mL premixed with the molecule.

T3 sequence (Q15116 25-167 limits assumed): as above

B1: CD127 (Sinobiological, 10975-H03H-50) (receptor, UniProt P16871 21-239, looked up)
chain: T2 sequence (looked up)
notes: bought; immobilised on the CM5 chip in the Biacore assays; also called CD127 receptor
B1 registered a Kd in assay [1] of 2500 nM.

B2: anti PD-1 W142H bifunctional molecule with an isotype IgG1m + YTE (grey circle; no label printed on the sheet, name taken from legend paragraph 41) (other)
heavy: QIQLVQSGSELKKPGASVKVSCKASGYTFTHYAMNWVRQAPGQGLEWMGWINTNTGEPTYAQGFTGRFVFSLDTSVSTAYLQISSLKAEDTAVYYCAREREPGMDNWGQGTLVTVSSASTKGPSVFPLAPSSKSTSGGTAALGCLVKDYFPEPVTVSWNSGALTSGVHTFPAVLQSSGLYSLSSVVTVPSSSLGTQTYICNVNHKPSNTKVDKKVEPKSCDKTHTCPPCPAPELLGGPSVFLFPPKPKDTLYITREPEVTCVVVDVSHEDPEVKFNWYVDGVEVHNAKTKPREEQYASTYRVVSVLTVLHQDWLNGKEYKCKVSNKALPAPIEKTISKAKGQPREPQVYTLPPSRDELTKNQVSLTCLVKGFYPSDIAVEWESNGQPENNYKTTPPVLDSDGSFFLYSKLTVDKSRWQQGNVFSCSVMHEALHNHYTQKSLSLSPGKGGGGSGGGGSGGGGSDCDIEGKDGKQYESVLMVSIDQLLDSMKEIGSNCLNNEFNFFKRHICDANKEGMFLFRAARKLRQFLKMNSTGDFDLHLLKVSEGTTILLNCTGQVKGRKPAALGEAQPTKSLEENKSLKEQKKLNDLCFLKRLLQEIKTCHNKILMGTKEH
light: DVVMTQSPLSLPVTLGQPASISCRSSQSLVHANTNTYLEWYQQRPGQSPRLLIYKVSNRFSGVPDRFSGSGSGTDFTLKISRVEAEDVGVYYCFQGTHVPNTFGQGTKLEIKRTVAAPSVFIFPPSDEQLKSGTASVVCLLNNFYPREAKVQWKVDNALQSGNSQESVTEQDSKDSTYSLSSTLTLSKADYEKHKVYACEVTHQGLSSPVTKSFNRGEC
notes: also called anti PD-1 IL-7 W142H IgG1m + YTE
B2: the “EC50 (read off the curve)” value in assay [2] is approximately 0.05 µg/mL.

B3: anti-PD-1*1 (control construction, one anti PD-1 arm, devoid of IL-7 variant) (antibody, human IgG1, kappa, N297A)
heavy: QIQLVQSGSELKKPGASVKVSCKASGYTFTHYAMNWVRQAPGQGLEWMGWINTNTGEPTYAQGFTGRFVFSLDTSVSTAYLQISSLKAEDTAVYYCAREREPGMDNWGQGTLVTVSSASTKGPSVFPLAPSSKSTSGGTAALGCLVKDYFPEPVTVSWNSGALTSGVHTFPAVLQSSGLYSLSSVVTVPSSSLGTQTYICNVNHKPSNTKVDKKVEPKSCDKTHTCPPCPAPELLGGPSVFLFPPKPKDTLMISRTPEVTCVVVDVSHEDPEVKFNWYVDGVEVHNAKTKPREEQYASTYRVVSVLTVLHQDWLNGKEYKCKVSNKALPAPIEKTISKAKGQPREPQVYTLPPCRDELTKNQVSLWCLVKGFYPSDIAVEWESNGQPENNYKTTPPVLDSDGSFFLYSKLTVDKSRWQQGNVFSCSVMHEALHNHYTQKSLSLSPGK
chain: DKTHTCPPCPAPELLGGPSVFLFPPKPKDTLMISRTPEVTCVVVDVSHEDPEVKFNWYVDGVEVHNAKTKPREEQYASTYRVVSVLTVLHQDWLNGKEYKCKVSNKALPAPIEKTISKAKGQPREPQVYTLPPCRDELTKNQVSLWCLVKGFYPSDIAVEWESNGQPENNYKTTPPVLDSDGSFFLYSKLTVDKSRWQQGNVFSCSVMHEALHNHYTQKSLSLSPGK
light: B2 light
notes: one-armed antibody, IgG1 N298A
With B3, the half-maximal effective concentration (EC50) in assay [3] was 0.238 nM; in assay [4], 5.01 nM.

B4: anti-PD1*2 (control antibody without any IL7) (antibody, IgG4, V domains shown)
VH: QIQLVQSGSELKKPGASVKVSCKASGYTFTHYAMNWVRQAPGQGLEWMGWINTNTGEPTYAQGFTGRFVFSLDTSVSTAYLQISSLKAEDTAVYYCAREREPGMDNWGQGTLVTVSS
VL: DVVMTQSPLSLPVTLGQPASISCRSSQSLVHANTNTYLEWYQQRPGQSPRLLIYKVSNRFSGVPDRFSGSGSGTDFTLKISRVEAEDVGVYYCFQGTHVPNTFGQGTKLEIKR
notes: two anti PD-1 arms
Consider B4, for which, in assay [3], the EC50 amounted to 0.021 nM.
